Reference: paper PMC4139204, “Insight into the Architecture of the NuRD Complex” (The Journal of Biological Chemistry, 2014)

B1: full-length MTA1: in vitro translated full-length MTA1; human MTA1 Uniprot Q13330 (protein, UniProt Q13330 1-715, looked up)
chain: MAANMYRVGDYVYFENSSSNPYLIRRIEELNKTANGNVEAKVVCFYRRRDISSTLIALADKHATLSVCYKAGPGADNGEEGEIEEEMENPEMVDLPEKLKHQLRHRELFLSRQLESLPATHIRGKCSVTLLNETESLKSYLEREDFFFYSLVYDPQQKTLLADKGEIRVGNRYQADITDLLKEGEEDGRDQSRLETQVWEAHNPLTDKQIDQFLVVARSVGTFARALDCSSSVRQPSLHMSAAAASRDITLFHAMDTLHKNIYDISKAISALVPQGGPVLCRDEMEEWSASEANLFEEALEKYGKDFTDIQQDFLPWKSLTSIIEYYYMWKTTDRYVQQKRLKAAEAESKLKQVYIPNYNKPNPNQISVNNVKAGVVNGTGAPGQSPGAGRACESCYTTQSYQWYSWGPPNMQCRLCASCWTYWKKYGGLKMPTRLDGERPGPNRSNMSPHGLPARSSGSPKFAMKTRQAFYLHTTKLTRIARRLCREILRPWHAARHPYLPINSAAIKAECTARLPEASQSPLVLKQAVRKPLEAVLRYLETHPRPPKPDPVKSVSSVLSSLTPAKVAPVINNGSPTILGKRSYEQHNGVDGNMKKRLLMPSRGLANHGQARHMGPSRNLLLNGKSYPTKVRLIRGGSLPPVKRRRMNWIDAPDDVFYMATEETRKIRKLLSSSETKRAARRPYKPIALRQSQALPPRPPPPAPVNDEPIVIED
modifications: full-length
notes: in vitro translated full-length MTA1; human MTA1 Uniprot Q13330
B2: MTA-like: known subunit of the D. melanogaster NuRD complex (protein)
chain: MATNMYRVGDYVYVETTPNSPYLIRRIEELNKNQTGNVEAKVMCFYRRRDLPNPLVQLADKHQLATAEDSPLATKLKKTWLRTPVSEEQAAQAVLDPSIAALDEERTSPTQTSGGGGSATGNSGSNSSGTSNNNSSSTAIGGGAGGSGGAGGDAEKGEALTSKQRYQIKHRELFLSRQVESIPATQIRGKCSVTLLNETESLQSYLNKDDTFFYCLVFDPNQKTLLADKGEIRVGSRYQCDIPAKLKDTATDDRKLEELESLVWTPEHSLTDRKIDQFLVVSRSIGTFARALDCSSSVKQPSLHMSAAAASRDITLFHAMNILHKHEYSIEESMSSLVPSTGPVLCRDEIEDWSASEANLFEEALEKYGKDFNDIRQDFLPWKTLKQIIEYYYMWKTTDRYVQQKRVKAVEAELKLKQVYIPQYNNNGKGNGTSTKAGGGIYNGTTNGSTDLSSNGKPCESCGTTKSSQWNSVSSGHSTSRLCLSCWEYWRRYGSMKSATKGDAGEGDAKKKSSSAASTPTATLAGLATTPTAVVDLNDDEKISDLTNRQLHRCSIVNCGKEFKLKTHLARHYAQAHGIAISSGSPRPIMKTRTAFYLHTNPMTRVARAICRSIVKPKKAARQSAYAINAMLVKQEFTNRISGKSQAEIKKLLLLKPKDRGSVTKIANRLGAPGSGPHEWLVLTPKDKMPLPAVVSFPKPPKAPDGSLVYDRVPNKSPDVVAVPADKELTIIPTQATSTIRKRAHEDQQLNGTEVTIVPSGPPAKRPNKDPMPSHCPSPEQFAAMMAASGQPLSRHHLNGKQKIAQMARGGNGRKQVISWMDAPDDVYFRANDTHKKTRKILSAVDLRRAARKPWRTLPIKPAAPEPSSRPIESQIVILD
B3: Rpd3: known subunit of the D. melanogaster NuRD complex, Rpd3 (dHDAC) (protein)
chain: MQSHSKKRVCYYYDSDIGNYYYGQGHPMKPHRIRMTHNLLLNYGLYRKMEIYRPHKATADEMTKFHSDEYVRFLRSIRPDNMSEYNKQMQRFNVGEDCPVFDGLYEFCQLSAGGSVAAAVKLNKQASEICINWGGGLHHAKKSEASGFCYVNDIVLGILELLKYHQRVLYIDIDVHHGDGVEEAFYTTDRVMTVSFHKYGEYFPGTGDLRDIGAGKGKYYAVNIPLRDGMDDDAYESIFVPIISKVMETFQPAAVVLQCGADSLTGDRLGCFNLTVKGHGKCVEFVKKYNLPFLMVGGGGYTIRNVSRCWTYETSVALAVEIANELPYNDYFEYFGPDFKLHISPSNMTNQNTSEYLEKIKNRLFENLRMLPHAPGVQIQAIPEDAINDESDDEDKVDKDDRLPQSDKDKRIVPENEYSDSEDEGEGGRRDNRSYKGQRKRPRLDKDTNSNKASSETSSEIKDEKEKGDGADGEESTASNTNSNNNSNNKSDNDAGATANAGSGSGSGSGAGAKGAKENNI

Legend:
[1] = tested on: RbAp48 binding to GST-H4-(1–48); experiment: Competition pulldown: GST-H4-(1–48) pulls down RbAp48 in absence and presence of full-length MTA1; design: species or system human; conditions: GST-H4-(1–48) on glutathione beads, in vitro translated 35S-labeled RbAp48, absence and presence of full-length MTA1
Procedure: The structural data provide clear evidence that histone H4 and MTA1 bind mutually exclusively to RbAp48. […] Competition-binding experiments were performed to assess whether full-length MTA1 might inhibit the interaction of RbAp48 with H3 or FOG1 peptides and to confirm that H4 and MTA1 bind mutually exclusively to RbAp48. GST-H4-(1–48) was expressed in bacteria, immobilized onto glutathione beads, and used to pull down RbAp48 in the absence and presence of full-length MTA1 (Fig. 7A). In a complementary experiment (Fig. 7B), in vitro translated FLAG-RbAp48 was immobilized on anti-FLAG beads and used to pull down MTA1 in the absence and presence of histone H4-(1–48).
FIGURE 7. […] A, pulldown showing the binding of in vitro translated ^35S-labeled RbAp48 to GST-histone H4-(1–48) (immobilized on glutathione beads) in the absence and presence of in vitro translated MTA1. B, pulldown showing the binding of in vitro translated ^35S-labeled MTA1 to FLAG-RbAp48 (immobilized on anti-FLAG beads) in the absence and presence of histone H4-(1–48). C, pulldown assays showing the effect of adding increasing amounts of FOG1-(1–15) peptide to a complex formed between in vitro translated ^35S-labeled FLAG-RbAp48 (immobilized on anti-FLAG beads) and in vitro translated ^35S-labeled full-length MTA1 or MTA1-(530–715). […]

[2] = tested on: Nurf55 WT; experiment: Protein A affinity purification with wild-type Nurf55 bait, mass spectrometry; assay type: cell-based, D. melanogaster (Dmel-2 cells); conditions: for Number of peptides identified, Nurf55 WT: IgG beads, Dmel-2 cells; for interaction with Nurf55: wild-type Nurf55
Description: (§1) Full-length Nurf55 (also known as p55 and CAF1) is the D. melanogaster homolog of RbAp46/p48. It was PCR-amplified and cloned into the pDONR221 vector via the BP (recombination and insertion of the att B sequence into the att P recombination site) reaction using standard Gateway Technology (Invitrogen) protocols. Five residues in this plasmid were mutated (L35Y, E361Q, D362N, E364Q, D365N) to create pDONR-Nurf55mut using the QuikChange Lightning Site-directed Mutagenesis kit (Agilent Technologies). The resulting wild-type and mutant clones were verified by sequencing. Primer sequences for the constructs are available on request. The Nurf55 genes were then transferred into destination vectors for the inducible expression of protein A- or GFP-tagged fusion proteins by the LR (insertion of sequences containing att L sites into destination att R sites) reaction according to the manufacturer's instructions.
(§2) D. melanogaster Dmel-2 cell lines stably expressing either tagged wild-type or mutant Nurf55 (containing the L35Y, E361Q, D362N, E364Q, and D365N mutations) were established. Affinity purification of protein A- and GFP-tagged bait and interacting proteins followed by mass spectrometry identification was carried out as previously reported ([39][–][41]).
(§3) Cell lines stably expressing protein A-tagged fusion proteins of either wild-type Nurf55 or the mutant (Nurf55mut) were generated. RbAp46 shares >90 and 85% sequence identity with RbAp48 and NuRF55, respectively. […] Cellular proteins that interact with protein A-tagged Nurf55/Nurf55mut were then isolated by affinity purification on IgG beads and identified by mass spectrometry as described previously ([39], [40]).

[3] = tested on: Nurf55 MUT; experiment: Protein A affinity purification with mutant Nurf55 bait, mass spectrometry; assay type: cell-based, D. melanogaster (Dmel-2 cells); conditions: for Number of peptides identified, Nurf55 MUT: IgG beads, Dmel-2 cells, mutant E361Q, D362N, E364Q, D365N, L35Y
Description: as §1, §2, §3

[4] = tested on: Nurf55 WT; experiment: GFP affinity purification with wild-type Nurf55 bait, mass spectrometry; assay type: cell-based, D. melanogaster (Dmel-2 cells); conditions: anti-GFP nanobody beads, Dmel-2 cells, triplicate, lowest number of unique peptides listed
Description: as §1, §2

[5] = tested on: Nurf55 MUT; experiment: GFP affinity purification with mutant Nurf55 bait, mass spectrometry; assay type: cell-based, D. melanogaster (Dmel-2 cells); conditions: anti-GFP nanobody beads, Dmel-2 cells, triplicate, lowest number of unique peptides listed, mutant E361Q, D362N, E364Q, D365N, L35Y
Description: as §1, §2

| Molecule | competition of MTA1 with histone H4 for RbAp48 [1] | Number of peptides identified, Nurf55 WT [2] | interaction with Nurf55 [2] | Number of peptides identified, Nurf55 MUT [3] | interaction with Nurf55mut [3] | Number of peptides identified, Nurf55 WT [4] | Number of peptides identified, Nurf55 MUT [5] |
| --- | --- | --- | --- | --- | --- | --- | --- |
| B1 | compete for the same binding surface on RbAp48 |  |  |  |  |  |  |
| B2 |  | 57 | pulled down by Nurf55 | 0 | not observed | 79 | 6 |
| B3 |  | 8 | pulled down by Nurf55 | 0 | not observed | 36 | 9 |
